The target in the series is IVIg (Octagam).

Where a chain is given by its changes, count along the chain named.

B1: pCART203 (protein)
chain: MDDYQRNATEAYAKEVPHQITSVWTKGVTPPEQFTQGEDVIHAPYLAHQGWYDITKAFDGKDNLLCGAATAGNMLHWWFDQNKTEIEAYLSKHPEKQKIIFNNQELFDLKAAIDTKDSQTNSQLFNYFRDKAFPNLSARQLGVMPDLVLDMFINGYYLNVFKTQSTDVNRPYQDKDKRGGIFDAVFTRGDQTTLLTARHDLKNKGLNDISTIIKQELTEGRALALSHTYANVSISHVINLWGADFNAEGNLEAIYVTDSDANASIGMKKYFVGINAHGHVAISAKKIEGENIGAQVLGLFTLSSGKDIWQKLSGGGHHHHHH
Regarding B1, the “cleavage efficacy on SDS-PAGE, fold vs IdeS” value is on record as “a 2 fold increased efficacy compared to IdeS” and the “enzyme concentration at which IgG cleavage is seen on SDS-PAGE” value is “demonstrates IgG cleavage at 0.5 ng/ml (lane 7)”.

B2: pCART208 (protein)
chain: B1 chain with F101I, N102R
In the case of B2, the “cleavage efficacy of the 1st heavy chain on SDS-PAGE, fold vs IdeS” value is “approximately a 4 fold increase in cleavage efficacy of the 1st heavy chain”.

B3: BX1001865 (IdeS lacking tag, produced to GMP standard) (protein)
chain: DSFSANQEIRYSEVTPYHVTSVWTKGVTPPANFTQGEDVFHAPYVANQGWYDITKTFNGKDDLLCGAATAGNMLHWWFDQNKDQIKRYLEEHPEKQKINFNGEQMFDVKEAIDTKNHQLDSKLFEYFKEKAFPYLSTKHLGVFPDHVIDMFINGYRLSLTNHGPTPVKEGSKDPRGGIFDAVFTRGDQSKLLTSRHDFKEKNLKEISDLIKKELTEGKALGLSHTYANVRINHVINLWGADFDSNGNLKAIYVTDSDSNASIGMKKYFVGVNSAGKVAISAKEIKEDNIGAQVLGLFTLSTGQDSWNQTN
B3: the “enzyme concentration at which cleavage starts on SDS-PAGE” value was “IdeS, which starts the cleavage at 0.9 ng/ml (lane 6) and has a dominating scIgG band at 1.9 ng/ml (lane 5)”.

B4: pCART124 (IdeS with additional N terminal methionine and histidine tag) (protein)
chain: MDSFSANQEIRYSEVTPYHVTSVWTKGVTPPANFTQGEDVFHAPYVANQGWYDITKTFNGKDDLLCGAATAGNMLHWWFDQNKDQIKRYLEEHPEKQKINFNGEQMFDVKEAIDTKNHQLDSKLFEYFKEKAFPYLSTKHLGVFPDHVIDMFINGYRLSLTNHGPTPVKEGSKDPRGGIFDAVFTRGDQSKLLTSRHDFKEKNLKEISDLIKKELTEGKALGLSHTYANVRINHVINLWGADFDSNGNLKAIYVTDSDSNASIGMKKYFVGVNSAGKVAISAKEIKEDNIGAQVLGLFTLSTGQDSWNQTNGGGHHHHHH
Take B4: the “enzyme concentration at which cleavage starts on SDS-PAGE” value is “IdeS, which starts the cleavage at 0.9 ng/ml (lane 6) and has a dominating scIgG band at 1.9 ng/ml (lane 5)”.

Source of the values: US20200179497.
